The record followed here is publication doi:10.1101/2020.05.06.080622.

Like-named read-outs stand apart in the source and are kept apart here.

What all share (test): EMSA
For orientation: Mobility shift assays separate free from complexed probe on a gel.

The target in data set [1] is T1, G4P (HIS-G4P-3xFLAG) (artificial (RHAU-derived), UniProt Q9H2U1 53-75+=GTGSGAGTGSGAGTGSGA+53-75, internal_change).
T1 sequence: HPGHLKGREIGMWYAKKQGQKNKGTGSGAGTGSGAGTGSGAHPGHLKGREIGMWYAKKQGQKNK

Data set [2] addresses T1, G4P (HIS-G4P-3xFLAG). The source holds these as a separate data set.
The target of data set [3] is T1, G4P (HIS-G4P-3xFLAG). The source holds these as a separate data set.

As to GGGGCCGGGGCCGGGGCCGGGGCC (structured_DNA) [C9orf72], in data set [1], the binding result was “binds”.

B1: dsCSTB (dsDNA)
DNA 1: CCTGAAGCAGACAGCTAGTGAATTCGGGGCGGGGCGCGGGGCGGGGTACTTGCGTATAACTGTTCCATAGT
DNA 2: ACTATGGAACAGTTATACGCAAGTACCCCGCCCCGCGCCCCGCCCCGAATTCACTAGCTGTCTGCTTCAGG
As to B1, in data set [2], the binding result is recorded as “binds”.
As for AAGGGAGGGCGGCGGGGCAGGGA (structured_DNA) [PDGFR-β], the binding result in data set [3] was “binds”.
